From the supplement of paper PMC10724198
± gives the standard deviation of the averaged measurements.

The sequences below were run on Saccharomyces cerevisiae (assay: protein stability index of tFT-peptide fusion (C-terminal peptide) (PSI (0-1 scale)); higher = more stable (slower turnover)). Settings: genetic background: wild type; temperature: 30 C.
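Note: PSI is a weighted mean of sequencing reads over stability bins, variants kept only with over 10 reads, mCherry proximal and sfGFP distal, peptide attached via GGGS linker.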

| Sequence | protein stability index |
| --- | --- |
| LGCLVGVRFLGF | 0.642 ± 0.032 |
| LGDGAVVAEESG | 0.642 ± 0.062 |
| LGDLVFGLSVWL | 0.684 ± 0.035 |
| LGFLLSLVCLLG | 0.532 ± 0.015 |
| LGGEVDLGPARG | 0.662 ± 0.092 |
| LGGTRRVGLALV | 0.685 ± 0.057 |
| LGGWWVSRVGEP | 0.732 ± 0.037 |
| LGKGRYNIKINK | 0.695 ± 0.016 |
| LGLPSSLGPSDF | 0.682 ± 0.011 |
| LGLRSGQGPVTL | 0.7746 ± 0.00092 |
| LGLRSRIYMLVD | 0.664 ± 0.0083 |
| LGLSTVKLEVPW | 0.7731 ± 0.0016 |
| LGMGWGSGLERW | 0.826 ± 0.12 |
| LGPRVGDPDGRF | 0.742 ± 0.019 |
| LGPSPQRLRYPT | 0.65 ± 0.035 |
| LGSILSSSSSRL | 0.699 ± 0.018 |
| LGSSQVGLVRRV | 0.663 ± 0.011 |
| LGSVLSLVRFGR | 0.677 ± 0.016 |
| LGVSVVEPGRVR | 0.702 ± 0.04 |
| LGVVCVGWLGGL | 0.664 ± 0.03 |
| LGWDGSRRRPGL | 0.727 ± 0.14 |
| LHAGHSNSVLAF | 0.601 ± 0.0075 |
| LHCKDWGHESRD | 0.6838 ± 0.0057 |
| LHHLASPSPPTP | 0.797 ± 0.015 |
| LHMVSCFLCSLW | 0.564 ± 0.018 |
| LHPPTHPQLPSS | 0.7214 ± 0.0059 |

| Sequence | protein stability index |
| --- | --- |
| LHRRIPFPTQAL | 0.567 ± 0.017 |
| LHSIPLNPYLIA | 0.712 ± 0.16 |
| LHSRKSDFSVIA | 0.656 ± 0.046 |
| LIDYGLDVSLSL | 0.703 ± 0.015 |
| LIFPPLPPLPPR | 0.754 ± 0.01 |
| LIISDVTGFSHL | 0.6576 ± 0.0029 |
| LIKKSFYMKIIK | 0.59 ± 0.057 |
| LIPAASLSPLAC | 0.562 ± 0.013 |
| LIPIRGESTFRF | 0.779 ± 0.11 |
| LIPLPPPPLPPP | 0.623 ± 0.09 |
| LIPTIRRKHRAT | 0.625 ± 0.014 |
| LIRVSPDVNITA | 0.622 ± 0.066 |
| LIYKRQPAFRCG | 0.632 ± 0.023 |
| LKAACAKRGVLS | 0.679 ± 0.085 |
| LKFRETHIRNHP | 0.701 ± 0.05 |
| LKPMSRKSLRSM | 0.715 ± 0.022 |
| LKRPDVTKKKSI | 0.62 ± 0.077 |
| LLAVLSPAAPLP | 0.696 ± 0.058 |
| LLCFRLFPALTP | 0.6228 ± 0.0057 |
| LLCHAGRTPRPP | 0.646 ± 0.013 |
| LLCPSPPSDIPP | 0.661 ± 0.016 |
| LLDGASALIFGG | 0.617 ± 0.057 |
| LLDSLCEKTFRS | 0.677 ± 0.032 |
| LLESTAHGKGIR | 0.683 ± 0.022 |
| LLFPFSLHLSPP | 0.765 ± 0.066 |
| LLFSPTHEPRIW | 0.734 ± 0.075 |

| Sequence | protein stability index |
| --- | --- |
| LLFSPTRVFLRY | 0.49 ± 0.053 |
| LLFSSPPARMCP | 0.786 ± 0.1 |
| LLGHSTPAHVFL | 0.7129 ± 0.0031 |
| LLGKVAYFFMFG | 0.631 ± 0.025 |
| LLGVRLGVLSFA | 0.58 ± 0.01 |
| LLHEAFSSPLSS | 0.7164 ± 0.0068 |
| LLHHSSVSFFSL | 0.71 ± 0.016 |
| LLHWGRWRRGRR | 0.722 ± 0.046 |
| LLIYIPLFEWAR | 0.526 ± 0.028 |
| LLKQDNSVLSEL | 0.63 ± 0.07 |
| LLLARWASFIMS | 0.685 ± 0.01 |
| LLLASSHAPYLH | 0.77 ± 0.021 |
| LLLLDLWLPSVL | 0.76 ± 0.059 |
| LLLLNSFFISPP | 0.742 ± 0.027 |
| LLLPSTPSPLLY | 0.609 ± 0.014 |
| LLPFCPPCLRSL | 0.648 ± 0.018 |
| LLPFDTYPPTSP | 0.695 ± 0.036 |
| LLPLAPSPPPPH | 0.71 ± 0.042 |
| LLPPPPFSAPPS | 0.671 ± 0.012 |
| LLPPSHRASPRQ | 0.694 ± 0.027 |
| LLPQSPRPLVHS | 0.774 ± 0.065 |
| LLPSLLRPQPPA | 0.699 ± 0.034 |
| LLPSPLSLTFPL | 0.616 ± 0.013 |
| LLPVFFISYPSS | 0.6545 ± 0.0053 |
| LLQLLGGFVFSA | 0.67 ± 0.018 |
| LLRLVFHLETSS | 0.547 ± 0.081 |

| Sequence | protein stability index |
| --- | --- |
| LLRVLVTFDAFD | 0.576 ± 0.021 |
| LLRWCFDLWWVL | 0.532 ± 0.051 |
| LLSFLLFFVPGS | 0.576 ± 0.0013 |
| LLSPPPHPPPLI | 0.6648 ± 0.0038 |
| LLSPQPPSSPLP | 0.69 ± 0.015 |
| LLSSPYPPDTFT | 0.6427 ± 0.0012 |
| LLTGPYRCIPLV | 0.608 ± 0.039 |
| LLTSRLSTPFLI | 0.53 ± 0.012 |
| LLVGVGGAGGVG | 0.603 ± 0.012 |
| LLVLPLVFSCSS | 0.53 ± 0.0078 |
| LLVWPLDQTFRL | 0.698 ± 0.019 |
| LLWVSAPHRYVR | 0.642 ± 0.036 |
| LLYALLLSLFRY | 0.595 ± 0.02 |
| LMSGFFCGLLYA | 0.6181 ± 0.0029 |
| LMYGSVGVRGGE | 0.76 ± 0.064 |
| LNCRCMLSRHCW | 0.666 ± 0.032 |
| LNSCLIVDEPDI | 0.8026 ± 0.0048 |
| LNTVNGRSSTAK | 0.665 ± 0.019 |
| LPACPHPPPLPD | 0.6594 ± 0.0047 |
| LPAHLLPPSSPS | 0.741 ± 0.03 |
| LPAHPPAAPGAP | 0.692 ± 0.032 |
| LPAPPPPPPSPL | 0.71 ± 0.074 |
| LPAPSPAVPSPP | 0.668 ± 0.033 |
